# Target: phosphorylated β-catenin (UniProt P35222)
# Test: co-immunoprecipitation (IP-GFP), western blot densitometry
# Settings: Triton-X100 cell extracts containing 50 mM NaF; SW480 extract as source of β-catenin; parent: 1
# Sequence of UniProt P35222 (P35222 whole entry): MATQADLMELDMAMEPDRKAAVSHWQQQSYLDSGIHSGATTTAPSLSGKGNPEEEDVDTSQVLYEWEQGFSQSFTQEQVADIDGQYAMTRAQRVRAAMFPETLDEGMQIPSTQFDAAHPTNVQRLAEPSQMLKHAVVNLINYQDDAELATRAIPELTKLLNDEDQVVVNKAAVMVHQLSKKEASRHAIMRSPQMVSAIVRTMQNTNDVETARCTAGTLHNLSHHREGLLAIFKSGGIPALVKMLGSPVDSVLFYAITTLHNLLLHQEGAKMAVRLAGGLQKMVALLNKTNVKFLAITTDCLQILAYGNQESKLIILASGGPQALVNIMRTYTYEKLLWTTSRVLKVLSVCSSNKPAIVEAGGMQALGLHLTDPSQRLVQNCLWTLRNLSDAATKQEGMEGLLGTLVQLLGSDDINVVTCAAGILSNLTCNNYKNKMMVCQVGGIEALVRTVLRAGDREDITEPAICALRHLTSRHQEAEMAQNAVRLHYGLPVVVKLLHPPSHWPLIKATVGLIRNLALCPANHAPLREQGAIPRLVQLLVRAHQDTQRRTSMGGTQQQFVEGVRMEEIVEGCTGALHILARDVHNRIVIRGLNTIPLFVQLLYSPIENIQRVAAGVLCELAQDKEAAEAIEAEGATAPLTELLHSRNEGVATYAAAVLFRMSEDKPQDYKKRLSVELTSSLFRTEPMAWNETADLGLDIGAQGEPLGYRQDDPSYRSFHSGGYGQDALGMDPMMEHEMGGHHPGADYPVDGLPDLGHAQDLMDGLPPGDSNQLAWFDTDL
substance,measurement,value
yAPC1289 (from UniProt P25054) 20R1µ,other: Ratio Phospho/total,0.9

# Source: publication PMC3698177
